Key:
Type in all cases: in vivo
soybean = assay: Field trial: Geobacillus stearothermophilus esterase soybean seed treatment, yield; conditions: text to Table 58; 0.5 fl oz/unit
Text: 0.5 fl oz/unit of Esterase (carboxylesterase) from Geobacillus/Bacillus stearothermophilus (SEQ ID NO:252) was coated onto soybean seeds treated with Evergol Energy (prothioconazole, metalaxyl, and penflufen fungicides) at 1 fl oz/cwt, Alias 4F (imidacloprid, insecticide) at 1.25 fl oz/unit, Sensient Red (colorant) at 0.5 fl oz/cwt, and Seedwork 4037L polymer at 1.5 fl oz/cwt. A control treatment without esterase enzyme was also created. The seed treated with esterase and control seed was planted in replicated trials distributed across 6 replicated plots with 4 replicates of 60 ft2 each at each site.

corn = assay: Greenhouse trial: Rhizopus oryzae Esterase corn seed treatment, plant height
Description: Rhizopus oryzae Esterase (carboxylesterase, SEQ ID NO:253) was coated onto 6049 V2 hybrid corn seeds. A water only control treatment without esterase enzyme was also created. The seed treated with esterase and control seed was planted in replicated greenhouse trials on promix soil with a fluctuating day/night temperature of 78° F./75° F., and 13 hours of light daily. Plant heights were measured on day 10 for each plant emerged from the soil.

[1] = test system: Fall armyworm (Spodoptera frugiperda); assay: Diet-surface overlay (DSO) bioassay; conditions: Table 46
Description: Diet-surface overlay bioassays are conducted with artificial diet mixes without antibiotics in 1.5 cm^2 cell bioassay trays(s). Artificial diets are commercially available from Southland Products Inc. Diets were prepared by dispersing 0.5 mL of molten diet to each 1.5 cm^2 cell. After solidification, 0.1 mL enzyme treatments were dispersed on top of diet in each cell and the tray was gently rocked in an orbital shaker to spread the liquid uniformly over the diet surface. Trays were placed under clean airflow until the surface of each cell was uniformly dried. One or two 16-cell sections were used per treatment (the number in larvae treated was 16 or 32).
One healthy first instar larva was placed into each treatment cell, each 16-cell section was covered with a re-sealable lid and incubated at 27° C. and light-dark period of 16:8 hrs. After 7 days, and according to the species, the number of individuals in the following developmental categories was recorded.
Negative/untreated controls were treated with filtered water and positive controls were treated with lethal doses of Bacillus thuringiensis subsp. Kurstaki (Btk) spores at 1000 ppm.

[2] = test system: Garden snails (Cornu aspersum); assay: Antifeedant and molluscicide bioassay (artificial diet): consumption, survival, weight gain; conditions: n = 12, 12 days
Description: Two-week old garden snails (Cornu aspersum) and full-size black gloss snails (Zonitoides nitidus) were maintained in a semi-darkened tank at 68-70° F. at high humidity, provided with a wet sponge in a petri dish. Snails were transferred to fresh tank every 2-3 days, and they were feed ad libitum with cucumber slices supplemented with calcium carbonate tablets. Individuals were reared in the laboratory for at least a week to fully acclimate to laboratory conditions prior to testing. The individuals ranged between 3 weeks to 2 months old at the time of bioassay.
Filter-sterilized recombinant enzymes including proteases and lipases were prepared as indicated in Example 25. Corresponding controls (e.g., buffer, fermentation of non-recombinant strain, water) were be prepared accordingly. Enzymes were dried by mixing them with Polyvinylpyrrolidone K30 (Thermo Sci Chem, Cat #227545000) at a ratio of 60 mg PVP per mL of enzymes, dispersed on a petri dish and allowed to dry in a bio-safety hood for 24-48 hours.
The treatments were prepared by mixing 0.4 g of dry enzyme and 1 gram of artificial diet mix. The artificial diet mix consisted of flour supplemented with 30 mg sucrose per gram of flour. Control diet contained 0.4 g of PVP and 1 g of artificial diet mix.
12 snails were randomly assigned to each treatment, labeled with permanent marker on the top of the shell for identification, and their weight (mg) was recorded before treatment. Then snails were transferred to dry plastic containers containing two petri dishes. Humidity was maintained with a folded and soaked light duty tissue paper in one petri dish. 1 g of treatment was provided as a thin layer on the other petri dish and was replaced every other day. At the time of treatment replacement, treatment consumption, weight, and mortality were recorded.

B1: Geobacillus stearothermophilus (a.k.a B. Stearothermophilus) Esterase (protein, listed as Bacillus stearothermophilus, listed as Geobacillus stearothermophilus)
chain: MKIVPPKPFFFEAGERAVLLLHGFTGNSADVRMLGRFLESKGYTCHAPIYKGHGVPPEELVHTGPDDWWQDVMNGYEFLKNKGYEKIAVAGLSLGGVFSLKLGYTVPIEGIVTMCAPMYIKSEETMYEGVLEYAREYKKREGKSEEQIEQEMEKFKQTPMKTLKALQELIADVRDHLDLIYAPTFVVQARHDEMINPDSANIIYNEIESPVKQIKWYEQSGHVITLDQEKDQLHEDIYAFLESLDW
yield versus base seed treatment package, in words (soybean): increased the yield

B2: Rhizopus oryzae Esterase (protein, listed as Rhizopus oryzae)
chain: SDGGKVVAATTAQIQEFTKYAGIAATAYCRSVVPGNKWDCVQCQKWVPDGKIITTFTSLLSDTNGYVLRSDKQKTIYLVFRGTNSFRSAITDIVFNFSDYKPVKGAKVHAGFLSSYEQVVNDYFPVVQEQLTANPTYKVIVTGHSLGGAQALLAGMDLYQREPRLSPKNLSIFTVGGPRVGNPTFAYYVESTGIPFQRTAHKRDIVPHVPPQSFGFLHPGVESWIKSGTSNVQICTSEIETKDCSNSIVPFTSILDHLSYFDINEGSCL
modifications: Rhizopus cf. oryzae
Height as % of Control (corn; Table 60, corn seed treatment 0.5 fl oz/unit, plant height on day 10, water control 100%): 103.7%
growth rate of corn, in words (corn; text to Table 60): increase the growth rate

B3: PpII Lipase: free lipase from porcine pancreas Type II (PpII) (protein, UniProt P00591 1-450, looked up)
Pancreatic triacylglycerol …: SEVCFPRLGCFSDDAPWAGIVQRPLKILPWSPKDVDTRFLLYTNQNQNNYQELVADPSTITNSNFRMDRKTRFIIHGFIDKGEEDWLSNICKNLFKVESVNCICVDWKGGSRTGYTQASQNIRIVGAEVAYFVEVLKSSLGYSPSNVHVIGHSLGSHAAGEAGRRTNGTIERITGLDPAEPCFQGTPELVRLDPSDAKFVDVIHTDAAPIIPNLGFGMSQTVGHLDFFPNGGKQMPGCQKNILSQIVDIDGIWEGTRDFVACNHLRSYKYYADSILNPDGFAGFPCDSYNVFTANKCFPCPSEGCPQMGHYADRFPGKTNGVSQVFYLNTGDASNFARWRYKVSVTLSGKKVTGHILVSLFGNEGNSRQYEIYKGTLQPDNTHSDEFDSDVEVGDLQKVKFIWYNNNVINPTLPRVGASKITVERNDGKVYDFCSQETVREEVLLTLNPC
Dead Larva ([1]; individuals of n = 32 after 7 days, U/mL diet: Bc 3.8, Pf 5.2, PpII 0.4, Rm 2.8, Lipase nd, water 2): 0
Larva Stage I ([1]; n = 32, doses as E92, water 0): 2
Larva Stage II ([1]; n = 32, doses as E92, water 0): 5
Larva Stage III ([1]; n = 32, doses as E92, water 0): 15
Larva Stage IV ([1]; n = 32, doses as E92, water 30): 10
Dead Snails ([2]; Table 62, lipases, garden snail, control diet 0): 0
Diet consumption ([2]; Table 62, lipases, garden snail, control diet 1.16): 0.82 gr
food consumption, in words ([2]; text to Table 62, lipases): consistent reduction in food consumption

Source: patent publication US20240324599A1, “PESTICIDAL ENZYMES FOR USE ON NEMATODES, INSECTS, AND MOLLUSKS” (priority 2023, published 2024)
